In publication PMC7721913 (The Journal of Cell Biology, 2020):

Columns and labels:
[1] = test system: CB and distal axon compartments of DRG neurons; assay: Western blot of KIF5 and KLC in cell body and distal axon lysates; format: cell-based, rat; details: Campenot CB vs distal axon lysates
SFPQ [2] = assay: Coimmunoprecipitation of endogenous SFPQ from DRG lysate, Western blot; format: binding, rat; details: DRG sensory neuron lysate
SFPQ [3] = assay: PRM-based quantification of KIF5 and KLC in SFPQ immunoprecipitations; format: binding, rat; details: KIF5A vs KIF5B or KIF5C, KLC1 vs KLC2; three independent experiments
HA-SFPQ = assay: Coimmunoprecipitation of HA-SFPQ with KLC1/KIF5A constructs in HEK 293T cells; details: Myc-KLC1 without C-terminal region vs WT, n = 4, P = 0.0033

Molecule | compartment localization (in words) [1] | coimmunoprecipitation with SFPQ (in words) (SFPQ [2]) | relative abundance in SFPQ immunoprecipitate (in words) (SFPQ [3]) | reduction of binding to SFPQ (HA-SFPQ) [%]
KIF5C: kinesin heavy chain KIF5C (protein, UniProt O60282 1-957, looked up) Kinesin heavy chain isoform 5C: MADPAECSIKVMCRFRPLNEAEILRGDKFIPKFKGDETVVIGQGKPYVFDRVLPPNTTQEQVYNACAKQIVKDVLEGYNGTIFAYGQTSSGKTHTMEGKLHDPQLMGIIPRIAHDIFDHIYSMDENLEFHIKVSYFEIYLDKIRDLLDVSKTNLAVHEDKNRVPYVKGCTERFVSSPEEVMDVIDEGKANRHVAVTNMNEHSSRSHSIFLINIKQENVETEKKLSGKLYLVDLAGSEKVSKTGAEGAVLDEAKNINKSLSALGNVISALAEGTKTHVPYRDSKMTRILQDSLGGNCRTTIVICCSPSVFNEAETKSTLMFGQRAKTIKNTVSVNLELTAEEWKKKYEKEKEKNKTLKNVIQHLEMELNRWRNGEAVPEDEQISAKDQKNLEPCDNTPIIDNIAPVVAGISTEEKEKYDEEISSLYRQLDDKDDEINQQSQLAEKLKQQMLDQDELLASTRRDYEKIQEELTRLQIENEAAKDEVKEVLQALEELAVNYDQKSQEVEDKTRANEQLTDELAQKTTTLTTTQRELSQLQELSNHQKKRATEILNLLLKDLGEIGGIIGTNDVKTLADVNGVIEEEFTMARLYISKMKSEVKSLVNRSKQLESAQMDSNRKMNASERELAACQLLISQHEAKIKSLTDYMQNMEQKRRQLEESQDSLSEELAKLRAQEKMHEVSFQDKEKEHLTRLQDAEEMKKALEQQMESHREAHQKQLSRLRDEIEEKQKIIDEIRDLNQKLQLEQEKLSSDYNKLKIEDQEREMKLEKLLLLNDKREQAREDLKGLEETVSRELQTLHNLRKLFVQDLTTRVKKSVELDNDDGGGSAAQKQKISFLENNLEQLTKVHKQLVRDNADLRCELPKLEKRLRATAERVKALESALKEAKENAMRDRKRYQQEVDRIKEAVRAKNMARRAHSAQIAKPIRPGHYPASSPTAVHAIRGGGGSSSNSTHYQK | localize to both CB and distal axon compartments |  |  | 
WT KIF5A: kinesin heavy chain KIF5A (protein, UniProt Q6QLM7 2-1027, looked up) Kinesin heavy chain isoform 5A: AETNNECSIKVLCRFRPLNQAEILRGDKFIPIFQGDDSVIIGGKPYVFDRVFPPNTTQEQVYHACAMQIVKDVLAGYNGTIFAYGQTSSGKTHTMEGKLHDPQLMGIIPRIARDIFNHIYSMDENLEFHIKVSYFEIYLDKIRDLLDVTKTNLSVHEDKNRVPFVRGCTERFVSSPEEILDVIDEGKSNRHVAVTNMNEHSSRSHSIFLINIKQENIETEQKLSGKLYLADLAGSEKVSKTGAEGAVLDEAKNINKSLSALGNVISALAEGTKSYVPYRDSKMTRILQDSLGGNCRTTMFICCSPSSYNDAETKSTLMFGQRAKTIKNTASVNLELTAEQWKKKYEKEKEKTKAQKETIAKLEAELSRWRNGENVPETERLAGEDSALAAEICEETPVNDNSSIVVRIAPEERQKYEEEIRRLYKQLDDKDDEINQQSQLIEKLKQQMLDQEELLVSTRGDNEKVQRELSHLQSENDAAKEEVKEVLQALEELAVNYDQKSQEVEEKSQQNQLLVDELSQKVATMLSLESEPQRLQEVSGHQRKRIAEVLNGLMKDLSEFSVIVGNGEIKLPVEISGAIEEEFTVARLYISKIKSEVKSVVKRCRQLENLQVECHRKMEVTGRELSSCQLLISQHEAKIRSLTEYMQTVELKKRHLEESYDSLSDELAKLQAQETVHEVALKDKEPDTQDAEEVKKALELQMENHREAHHRQLARLRDEINEKQKTIDELKDLDQKLQLELEKLQADYERLKNEENEKSAKLQELTFLYERHEQSKQDLKGLEETVARELQTLHNLRKLFVQDVTTRVKKSAEMEPEDSGGIHSQKQKISFLENNLEQLTEVHKQLVRDNADLRCELPKLEKRLRATAERVKALEGALKEAKEGAMKDKRRYQQEVDRIKEAVRYKSSGKRGHSAQIAKPVRPGHYPASSPTNPYGTRSPECISYTNNLFQNYQNLHLQAAPSSTSDVYFASNGATSVAPLASYQKANTDNGNATDINDNRSDLPCGYEAEDPAKLFPLHQETAAS | localize to both CB and distal axon compartments | preferentially coimmunoprecipitates | approximately twice as abundant | 
KLC2: kinesin light chain 2 (protein, UniProt Q9H0B6 1-622, looked up) Kinesin light chain 2: MAMMVFPREEKLSQDEIVLGTKAVIQGLETLRGEHRALLAPLVAPEAGEAEPGSQERCILLRRSLEAIELGLGEAQVILALSSHLGAVESEKQKLRAQVRRLVQENQWLREELAGTQQKLQRSEQAVAQLEEEKQHLLFMSQIRKLDEDASPNEEKGDVPKDTLDDLFPNEDEQSPAPSPGGGDVSGQHGGYEIPARLRTLHNLVIQYASQGRYEVAVPLCKQALEDLEKTSGHDHPDVATMLNILALVYRDQNKYKEAAHLLNDALAIREKTLGKDHPAVAATLNNLAVLYGKRGKYKEAEPLCKRALEIREKVLGKFHPDVAKQLSNLALLCQNQGKAEEVEYYYRRALEIYATRLGPDDPNVAKTKNNLASCYLKQGKYQDAETLYKEILTRAHEKEFGSVNGDNKPIWMHAEEREESKDKRRDSAPYGEYGSWYKACKVDSPTVNTTLRSLGALYRRQGKLEAAHTLEDCASRNRKQGLDPASQTKVVELLKDGSGRRGDRRSSRDMAGGAGPRSESDLEDVGPTAEWNGDGSGSLRRSGSFGKLRDALRRSSEMLVKKLQGGTPQEPPNPRMKRASSLNFLNKSVEEPTQPGGTGLSDSRTLSSSSMDLSRRSSLVG | localize to both CB and distal axon compartments |  |  | 
KIF3C: kinesin transporting RNA granules in neurons (protein, UniProt O55165 1-796, looked up) Kinesin-like protein KIF3C: MASKTKASEALKVVARCRPLSRKEEAAGHEQILTMDVKLGQVTLRNPRAAPGELPKTFTFDAVYDASSKQADLYDETVRPLIDSVLQGFNGTVFAYGQTGTGKTYTMQGTWVEPELRGVIPNAFEHIFTHISRSQNQQYLVRASYLEIYQEEIRDLLSKEPGKRLELKENPETGVYIKDLSSFVTKNVKEIEHVMNLGNQARAVGSTHMNEVSSRSHAIFVITVECSERGSDGQDHIRVGKLNLVDLAGSERQNKAGPNTPGGPATQSTAGGGGGGGGTSGSGSSGERPKEASKINLSLSALGNVIAALAGNRSTHIPYRDSKLTRLLQDSLGGNAKTIMVATLGPASHSYDESLSTLRFANRAKNIKNKPRVNEDPKDTLLREFQEEIARLKAQLEKKGMLGKRPRRKSSRRKKAVSAPAGYPEGAVIEAWVAEEEDDNNNNHRPPQPTLEAALEKNMENYLQEQKERLEEEKAAIQDDRSLVSEEKQKLLEEKEKMLEDLKREQQATELLAAKYKAMESKLLIGGRNIMDHTNEQQKMLELKRQEIAEQKRREREMQQEMLLRDEETMELRGTYSSLQQEVEVKTKKLKKLYAKLQAVKAEIQDQHEEYIRVRQDLEEAQNEQTRELKLKYLIIENFIPPEEKNKIMNRLFLDCEEEQWKFQPLVPAGVNNSQMKKRPTSAVGYKRPISQYARVAMAMGSHPRYRAENIMFLELDVSPPAIFEMEFSHDQEQDPRVLHMERLMRLDSFLERPSTSKVRKSRSWCQSPQRPPPPSTVHASMASAPLHPATVVDHD |  | none of these kinesins significantly coimmunoprecipitates with SFPQ |  | 
KLC1: kinesin light chain 1 (protein) MHDNMSTMVYMKEEKLEKLTQDEIISKTKQVIQGLEALKNEHNSILQSLLETLKCLKKDDESNLVEEKSSMIRKSLEMLELGLSEAQVMMALSNHLNAVESEKQKLRAQVRRLCQENQWLRDELANTQQKLQKSEQSVAQLEEEKKHLEFMNQLKKYDDDISPSEDKDSDSSKEPLDDLFPNDEDDPGQGIQQQHSSAAAAAQQGGYEIPARLRTLHNLVIQYASQGRYEVAVPLCKQALEDLEKTSGHDHPDVATMLNILALVYRDQNKYKDAANLLNDALAIREKTLGRDHPAVAATLNNLAVLYGKRGKYKEAEPLCKRALEIREKVLGKDHPDVAKQLNNLALLCQNQGKYEEVEYYYQRALEIYQTKLGPDDPNVAKTKNNLASCYLKQGKFKQAETLYKEILTRAHEREFGSVDDENKPIWMHAEEREECKGKQKDGSSFGEYGGWYKACKVDSPTVTTTLKNLGALYRRQGKFEAAETLEEAALRSRKQGLDNVHKQRVAEVLNDPENVEKRRSRESLNVDVVKYESGPDGGEEVSMSVEWNGMRKMKLGLVK | localize to both CB and distal axon compartments | preferentially coimmunoprecipitates | approximately twice as abundant | 
KLC1 or its C-terminal mutant (ΔTail) (protein, UniProt P37285 1-560, looked up, or C-terminal tail deletion mutant) Kinesin light chain 1: MHDNMSTMVYMKEEKLEKLTQDEIISKTKQVIQGLEALKNEHNSILQSLLETLKCLKKDDESNLVEEKSSMIRKSLEMLELGLSEAQVMMALSNHLNAVESEKQKLRAQVRRLCQENQWLRDELANTQQKLQKSEQSVAQLEEEKKHLEFMNQLKKYDDDISPSEDKDSDSSKEPLDDLFPNDEDDPGQGIQQQHSSAAAAAQQGGYEIPARLRTLHNLVIQYASQGRYEVAVPLCKQALEDLEKTSGHDHPDVATMLNILALVYRDQNKYKDAANLLNDALAIREKTLGRDHPAVAATLNNLAVLYGKRGKYKEAEPLCKRALEIREKVLGKDHPDVAKQLNNLALLCQNQGKYEEVEYYYQRALEIYQTKLGPDDPNVAKTKNNLASCYLKQGKFKQAETLYKEILTRAHEREFGSVDDENKPIWMHAEEREECKGKQKDGSSFGEYGGWYKACKVDSPTVTTTLKNLGALYRRQGKFEAAETLEEAALRSRKQGLDNVHKQRVAEVLNDPENVEKRRSRESLNVDVVKYESGPDGGEEVSMSVEWNGMRKMKLGLVK |  |  |  | ~50
